Results taken from US20190275125A1.
Where two headings read alike, the source gives them in different places.

Key:
Assay in all cases: MSD inhibition assay, abeta 1-28 coated plates
[1] = molecular target: Biosimilar (BS) bapineuzumab
[2] = molecular target: Biosimilar (BS) bapineuzumab; remark: listed apart in the source
[3] = molecular target: Biosimilar (BS) bapineuzumab; remark: listed apart in the source

Chain of Biosimilar (BS) bapineuzumab (chain, as listed by the source, chain 1 of 2): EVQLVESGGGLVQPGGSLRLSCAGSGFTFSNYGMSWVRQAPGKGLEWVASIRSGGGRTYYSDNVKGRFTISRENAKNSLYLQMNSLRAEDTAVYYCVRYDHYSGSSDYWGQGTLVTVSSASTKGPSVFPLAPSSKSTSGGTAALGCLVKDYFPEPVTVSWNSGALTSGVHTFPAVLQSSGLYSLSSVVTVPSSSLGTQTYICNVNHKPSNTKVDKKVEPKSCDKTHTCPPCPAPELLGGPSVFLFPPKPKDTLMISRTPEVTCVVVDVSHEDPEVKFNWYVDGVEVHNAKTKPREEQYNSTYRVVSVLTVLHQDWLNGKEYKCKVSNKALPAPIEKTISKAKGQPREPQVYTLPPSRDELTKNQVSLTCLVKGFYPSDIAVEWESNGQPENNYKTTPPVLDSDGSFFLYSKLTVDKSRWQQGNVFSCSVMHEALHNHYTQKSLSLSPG
Chain of Biosimilar (BS) bapineuzumab (chain, as listed by the source, chain 2 of 2): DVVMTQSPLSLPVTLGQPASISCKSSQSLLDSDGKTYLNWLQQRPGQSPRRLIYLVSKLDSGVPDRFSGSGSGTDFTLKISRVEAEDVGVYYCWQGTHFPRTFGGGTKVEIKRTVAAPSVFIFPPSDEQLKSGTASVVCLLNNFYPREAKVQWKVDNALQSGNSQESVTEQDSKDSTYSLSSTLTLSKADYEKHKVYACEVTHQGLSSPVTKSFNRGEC

B1: abeta 1-12 trimer construct, P05067 672-683; P05067 672-683; P05067 672-683 (peptide)
peptide: DAEFRHDSGYEVGGGGGGGGDAEFRHDSGYEVGGGGGGGGDAEFRHDSGYEV
modifications: not checked
[1]
  IC50: 19 nM
[2]
  IC50: 10 to 40 nM
[3]
  IC50: 10 nM
